Substrate in series [1]: CC(=O)Oc1ccc2ccccc2c1
As to the kind of experiment: UV/vis substrate-loss assay. It counts as biochemical, Drosophila melanogaster. The following applies: Tris-HCl pH 8.0, 25 °C, 5% ethanol.

Substrate in series [2]: CC(=O)Oc1ccc([N+](=O)[O-])cc1
The experiment in a line: UV/vis substrate-loss assay. It is filed as biochemical, Drosophila melanogaster. The following applies: Tris-HCl pH 8.0, 25 °C, 5% ethanol (Table S1), Fig. S1 without ethanol.

What is called Km is the substrate concentration at which the rate is half of its maximum.

B1: EST6 (wildtype EST6, EST6-WT) (Drosophila melanogaster) (protein)
chain: SDTDDPLLVQLPQGKLRGRDNGSYYSYESIPYAEPPTGDLRFEAPEPYKQKWSDIFDATKTPVACLQWDQFTPGANKLVGEEDCLTVSVYKPKNSKRNSFPVVAHIHGGAFMFGAAWQNGHENVMREGKFILVKISYRLGPLGFVSTGDRDLPGNYGLKDQRLALKWIKQNIASFGGEPQNVLLVGHSAGGASVHLQMLREDFGQLARAAFSFSGNALDPWVIQKGARGRAFELGRNVGCESAEDSTSLKKCLKSKPASELVTAVRKFLIFSYVPFAPFSPVLEPSDAPDAIITQDPRDVIKSGKFGQVPWAVSYVTEDGGYNAALLLKERKSGIVIDDLNERWLELAPYLLFYRDTKTKKDMDDYSRKIKQEYIGNQRFDIESYSELQRLFTDILFKNSTQESLDLHRKYGKSPAYAYVYDNPAEKGIAQVLANRTDYDFGTVHGDDYFLIFENFVRDVEMRPDEQIISRNFINMLADFASSDNGSLKYGECDFKDNVGSEKFQLLAIYIDGCQNRQHVEFP
notes: wildtype, baculovirus expressed, semi-purified; N-terminal signal peptide of 63 bp (21 residues) in the gene
With B1, the values for the Km in series [1] and in series [2] were 121 ± 6 µM and 269 ± 18 µM, respectively. Also, the kcat in series [1] is reported as 135 ± 2 s-1 (head prints M.s-1); in series [2], 105 ± 2 s-1 (head prints M.s-1).
